This passage reports FRNT neutralisation of ONNV, EC50, FRNT neutralisation, LR 2006 EC50 and FRNT neutralisation, 37997 EC50 results from patent US20260062466A1.

Where a chain is given by its changes, count along the chain named. Some results are limits rather than exact numbers.

Holding throughout (experiment): cell-based or functional assay
Assay [1] concerns the target ONNV (O'nyong'nyong virus, MP30) envelope glycoproteins (O'nyong'nyong virus strain MP30).
Assay [2] addresses CHIKV-LR 2006 (virus) (Chikungunya virus strain LR 2006).
The target in assay [3] is CHIKV-37997 (virus) (Chikungunya virus strain 37997) (UniProt Q5XXP3).
Sequence of CHIKV-37997 (virus) (Chikungunya virus strain 37997) (Q5XXP3 326-748 limits assumed, chain 1 of 2): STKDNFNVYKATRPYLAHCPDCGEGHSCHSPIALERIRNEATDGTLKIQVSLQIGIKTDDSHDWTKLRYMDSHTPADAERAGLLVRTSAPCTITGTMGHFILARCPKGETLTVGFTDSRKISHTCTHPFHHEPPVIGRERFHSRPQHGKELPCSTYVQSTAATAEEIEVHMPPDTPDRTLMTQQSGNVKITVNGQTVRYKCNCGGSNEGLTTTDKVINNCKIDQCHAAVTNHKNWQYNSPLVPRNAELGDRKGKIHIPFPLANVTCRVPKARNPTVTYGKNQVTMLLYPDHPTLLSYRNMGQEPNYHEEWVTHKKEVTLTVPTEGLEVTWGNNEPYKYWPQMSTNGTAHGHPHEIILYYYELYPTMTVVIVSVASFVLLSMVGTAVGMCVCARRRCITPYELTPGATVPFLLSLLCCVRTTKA
Sequence of CHIKV-37997 (virus) (Chikungunya virus strain 37997) (Q5XXP3 810-1248 limits assumed, chain 2 of 2): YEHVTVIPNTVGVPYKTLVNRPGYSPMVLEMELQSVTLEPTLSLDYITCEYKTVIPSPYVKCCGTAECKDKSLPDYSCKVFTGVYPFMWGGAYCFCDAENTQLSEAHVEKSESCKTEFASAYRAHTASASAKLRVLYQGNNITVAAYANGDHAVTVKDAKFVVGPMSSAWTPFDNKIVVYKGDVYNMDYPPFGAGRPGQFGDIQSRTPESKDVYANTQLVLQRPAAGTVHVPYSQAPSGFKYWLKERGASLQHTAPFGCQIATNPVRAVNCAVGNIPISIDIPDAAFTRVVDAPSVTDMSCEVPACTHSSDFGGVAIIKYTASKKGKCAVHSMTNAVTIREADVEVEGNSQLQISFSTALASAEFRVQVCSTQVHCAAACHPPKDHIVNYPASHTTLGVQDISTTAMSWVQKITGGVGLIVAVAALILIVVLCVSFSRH

B1: 506.C01 (antibody, V domains shown)
VH: QVQLQESGPGLVKPSQTLSLTCTVSGGSISSDDYYWTWIRLPPGKGLEWIGYIFYTGGTYYNPSLKSRVTISLDRSKNQFSLKLSSVTAADTAVYFCARAPETYCSTTNCYKGYFDSWGQGTLVTVSS
VL: DIQMTQSPSSVSASVGDRVTITCRASQGISSWLGWYQQKPGKAPKLLIYAASSLQSGVPSRFSGSGSGTDFTLTISSLQPEDFATYYCQQANSFPRTFGQGTKVEIK
In the case of B1, the FRNT neutralisation of ONNV, EC50 in assay [1] is under 50 ng/mL.

B2: 516.H09 (antibody, V domains shown)
VH: QLQLQESGPGLVKPSETLSLTCTVSGGSISSSSYYWGWIRQPPGKGLEWIGSIYYSGSTYYNPSLKSRVTISVDTSKNQFSLKLSSVTAADTAVYYCARHSYCSGGSCYLAPLGDWGQGTLVTVSS
VL: SYVLTQPPSVSVAPGKTARITCGGNNIGSKSVHWYQQKPGQAPVLVIYYDSDRPSGIPERFSGSNSGNTATLTISRVEAGDEADYYCQVWDSSSDFYVFGTGTKVTVL
B2: in assay [2], the FRNT neutralisation, LR 2006 EC50 was 182 ng/mL. The FRNT neutralisation, 37997 EC50 in assay [3] came out at 526 ng/mL.

B3: 516.D09 (antibody, V domains shown)
VH: QVQLVQSGAEVKKPGSSVKVSCKAFGGTFSSSAITWVRQAPGQGLEWMGRIIPIFGTANYAQKFQGRVTITADKSTTTAYMELSSLRSEDTAVYYCALKADSYCSGSSCYPSFDYWGQGTLVTVSS
VL: B2 VL with K38R, I47V, Y49D, F96Q, Y97E, T101G, V105L
On to B3, for which, in assay [2], the FRNT neutralisation, LR 2006 EC50 came to 248 ng/mL. Further, the FRNT neutralisation, 37997 EC50 in assay [3] was found to be 350 ng/mL.

B4: 516.H07 (antibody, V domains shown)
VH: EVQLVESGGGLVQPGGSLRLSCAASGFTFSSYEMNWVRQAPGKGLEWVSYMSYTGSTIYYADSVKGRFTISRDNGKNSLYLQMNSLRVEDTAVYYCARGGVVVAPTYFDYWGQGTLVTVSS
VL: QSVLTQPPSVSGAPGQRVTISCTGSSSNIGAGYDVHWYQQLPGTAPKLLIYHNNNRPSGVPDRFSASKSGTSASLAITGLQAEDEADYYCQSYDSSLSGWVFGGGTKLTVL
As for B4, the FRNT neutralisation of ONNV, EC50 in assay [1] was under 50 ng/mL. In assay [2], this molecule showed an FRNT neutralisation, LR 2006 EC50 of 61 ng/mL. The FRNT neutralisation, 37997 EC50 in assay [3] stood at 910 ng/mL.

B5: 520.D02 (antibody, V domains shown)
VH: QVQLVQSGSELQKPGASVKVSCKASGYTFTENAIIWVRQAPGQGLEWMGRIIRYPGRPTIAQGFTGRFGFSLDTSINTAYLEISNLKAEDTAFFYCAREYCDSSSCSSFDYWGQGTLVTVSS
VL: QSVLTQPPSASGSPGQSVTISCTGTNNDVGIYSYVSWYQQHPGKAPKLMIYEVSKRPSGVPDRFSGSKSGNTASLTVSGLQADDEADYYCSSYAGSNSYVFGSGTKVTVL
Molecule B5 came in with an FRNT neutralisation, LR 2006 EC50 in assay [2] of 5 ng/mL. The molecule further returned an FRNT neutralisation, 37997 EC50 in assay [3] of 2 ng/mL.

B6: 516.F07 (antibody, V domains shown)
VH: EVQLVQSGAEVKKPGESLKISCKGSGYRFTSYWIAWVRQMPGKGLECMGIIYPGDSDTRYSPSFQGQVTISVDKSISTAYLQWSSLKASDTAMFYCARHNNNWSLQGYFDYWGQGTLVTVSS
VL: PSALTQPASVSGSPGQSITISCTGTSSDVGGYNYVSWYQQHPGKAPKLMIYDVSNRSSGVSNRFSGSKSGNTASLTISGLQAEDEADYYCSSYTGSSTSNYVFGTGTKVTVL
Regarding B6, the FRNT neutralisation, LR 2006 EC50 in assay [2] is 31 ng/mL. The FRNT neutralisation, 37997 EC50 in assay [3] was determined as 4 ng/mL.
